According to patent EP4613859A1, “TLR SIGNALING INHIBITORY PEPTIDE AND COMPOSITION INCLUDING SAME FOR PREVENTION OR TREATMENT OF INFLAMMATORY DISEASES” (Korea Institute of Science and Technology, priority 2022, dated 2025):

Tests used:
[1] = tested on: human MAL; test: Phage display screening of TIR domain-derived peptide library against immobilized MAL, NGS analysis after four rounds; format: binding; conditions: for NGS count: phages remaining after fourth round
Method: (§1) First, vector cloning was performed by synthesizing a DNA sequence for expressing each peptide belonging to the library constructed in Example 1. Vector cloning was performed using p3/p8 phagemids.
(§2) After the fourth round, the remaining phages were obtained by binding to the finally immobilized target proteins, and peptide sequences binding to the target and the relative distribution of each sequence were confirmed by performing NGS analysis on phagemids in the phages.

[2] = tested on: human MYD88; test: Phage display screening of TIR domain-derived peptide library against immobilized MyD88, NGS analysis after four rounds; format: binding; conditions: for NGS count: P3_MyD88: library displayed on P3 coat protein, phages remaining after fourth round; for Population: P3_MyD88: relative distribution of the sequence in NGS
Method: as §1, §2

[3] = molecular target: human MyD88 (human) (UniProt Q99836); test: P8 phage display panning on plate-immobilised MyD88, after round 4, NGS
Chain of UniProt Q99836 (Q99836 155-296 limits assumed): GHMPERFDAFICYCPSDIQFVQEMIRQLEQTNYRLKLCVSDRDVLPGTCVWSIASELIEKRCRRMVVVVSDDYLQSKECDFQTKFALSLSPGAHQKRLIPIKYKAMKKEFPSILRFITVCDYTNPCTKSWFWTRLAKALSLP

[4] = molecular target: human MAL (human) (UniProt P58753); test: P3 phage display panning on plate-immobilised MAL, after round 4, NGS
Chain of UniProt P58753 (P58753 79-221 limits assumed): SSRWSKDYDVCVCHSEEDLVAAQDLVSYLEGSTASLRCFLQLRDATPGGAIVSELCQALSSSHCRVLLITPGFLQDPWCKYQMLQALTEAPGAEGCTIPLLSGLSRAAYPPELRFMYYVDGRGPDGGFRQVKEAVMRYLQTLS

[5] = P8_MAL: library displayed on P8 coat protein
[6] = P3_MAL: library displayed on P3 coat protein
[7] = P3_MAL: relative distribution of the sequence in NGS
[8] = P8_MAL: relative distribution of the sequence in NGS

| Molecule | NGS count [3] | Population [3] | NGS count [4] | Population [4] | also measured |
| --- | --- | --- | --- | --- | --- |
| DFLNWFIALKSTVIEN |  |  |  |  | NGS count [1, 5]: 867 |
| KWFWDKLIYALSRNPH |  |  |  |  | NGS count [1, 6]: 2796; Population [1, 7]: 1.05% |
| HHKGSYGEALAEHEKR |  |  |  |  | NGS count [1, 6]: 3056; Population [1, 7]: 1.15% |
| KFIWDIINAISSQIRV |  |  |  |  | NGS count [1, 5]: 146 |
| HFFWIQLKSILGETSF |  |  |  |  | NGS count [1, 5]: 3624; Population [1, 8]: 1.12% |
| LVAHEISKKMKIFATI |  |  |  |  | NGS count [1, 6]: 1671; Population [1, 7]: 0.63%; NGS count [2]: 17452; Population [2]: 5.08% |
| TFLGHLYNALVQAGIH |  |  |  |  | NGS count [1, 5]: 24732; Population [1, 8]: 7.64% |
| SSFREGLWRLLELSKK |  |  |  |  | NGS count [1, 6]: 29955; Population [1, 7]: 11.26%; NGS count [2]: 79510; Population [2]: 23.15% |
| AFFWAQLKSVLGNPTM |  |  |  |  | NGS count [1, 5]: 28801; Population [1, 8]: 8.90% |
| YASYDDNDYYWVTHVLLRHL | 5890 count | 2.66% |  |  |  |
| DPQDLQWFYERLVSLI | 5730 count | 2.21% |  |  |  |
| VEPTQVRKQSGAVENA |  |  | 2280 count | 0.86% |  |
| LQNQWKLALTKVANLV |  |  | 2280 count | 0.86% |  |
| RGFLSHLRHHLQAKDH |  |  | 15100 count | 5.66% |  |
| WALDELLQILHARELF | 14400 count | 5.55% |  |  |  |
| WDFASNMEQFWDRLYY | 7350 count | 2.83% |  |  |  |
| LGYHWIDWEYFVGIED | 25200 count | 9.72% |  |  |  |
| SFFWNKLRYHLPAPQH |  |  | 2300 count | 0.86% |  |
| PNLRTKVLNYLMRTKT |  |  | 26900 count | 10.1% |  |
| DWFLSKLSQHILKREK |  |  | 4580 count | 1.72% |  |
| SLRKNLVSNLIEEFKR |  |  | 3570 count | 1.34% |  |
| DPQDLDWFYERLVSLF | 54800 count | 21.1% |  |  |  |
| RLLKWKEALHQFHSWV |  |  | 14900 count | 5.61% |  |
| FLNFRGLDVRNYFLGH |  |  | 2860 count | 1.07% |  |
| WALDELLKILYANETM | 10500 count | 4.05% |  |  |  |

Continued, in another order:

| NGS count [3] | Population [3] | NGS count [4] | Population [4] | Molecule | also measured |
| --- | --- | --- | --- | --- | --- |
| 13100 count | 5.06% |  |  | DPQDLDWFYERLVSLL |  |
|  |  | 2800 count | 1.05% | KWFWDKLIYALSRNPH |  |
| 10600 count | 4.07% |  |  | PQDLEWFYERLVSLIL |  |
| 19400 count | 7.47% |  |  | DWVWDYLLPNLEGPAG |  |
| 7160 count | 2.76% |  |  | YLLLSVFQTIFARRTE |  |
| 7590 count | 2.92% |  |  | DSLFWDRLLYSLHVTE |  |
|  |  | 3060 count | 1.15% | HHKGSYGEALAEHEKR |  |
| 5340 count | 2.06% |  |  | SAAYDDFWDRLIRMIE |  |
|  |  | 1930 count | 0.73% | HQAFWNRLWAKLKPPT |  |
| 4900 count | 1.89% |  |  | VQWDDPWFWDKLAYAM |  |
| 4490 count | 1.73% |  |  | DPQDLEWFYERLFSQM |  |
|  |  | 4430 count | 1.66% | KMQKWKDALYEAANLS |  |
